Test results reported in publication PMC3551926, “Dact2 Represses PITX2 Transcriptional Activation and Cell Proliferation through Wnt/beta-Catenin Signaling during Odontogenesis” (PLoS ONE, 2013).

Target: GST-PITX2A-FL (full length) (UniProt Q99697-3 1-271)
Assay: cell-based or functional assay

luciferase reporter driven by the Amelx 2.2 kb promoter in cells co-transfected with PITX2A and Dact2: fold activation by PITX2A with Dact2 (∼22-fold without Dact2): 14 fold activation
B1: Dact2, purified bacterially expressed protein (natural protein, mouse, UniProt Q7TN08 1-757, looked up)
chain: MWAPSGQGPAGWDRRRVGARLRAALAGLQELQGLRATQQARVRGALGLHPAPGPRGQELRLEAALTALREQLSRLRRQDAGLKTHLDQLDQQISELQLDVSRSSCEALDSDSRPSSGFYELSDAGSCSLSTSCASVCSDRLSPSLGSWLPVFQPSKSRSGIGDWRPRSADETTVPAWSPQLTEDSRLLHGAEGTGRLTGMFRPRPVSTGDLERVLPADVGLQRAGTDAAHLLGQGIEIPAHALDPTYQRDLVARGGQEVYPYPSPLHAVALQSPLFALPKEAPCFDICSPPQEPPLVPVDENRTQPEPIRELGSAEAYIHRLLHLRGQELPLRDVGQEQGGDTAAFPPKPCGQRSESTCQLEKQACGADRGGLKLGRGAAKDSLKQHGPVSLVGAEPLSSPLKEETIPWNPCVHGDNTVGSSPCSQAQQPLNDCGQGPVLSPSRVLGTESPPLAPEPFAYTSCTTGETSPVKLRMGFSQNKAVKVRRRVSEKVPRLGKQLPPQPERQRVTERDPSRPHQGGLSRRPTLAREPPGRSCSESTLYPVPFLVPVVVAQRESYPTSPQAFFPMEAALLSSAARRKQRRWQSTMEISAKAGSVSQPGPSMGLPRSPAKRGSGPRAQSRPTLARQDACARCESDPSEHSADCTSLYHSTIAETSEDEEASDHTANRFGDESSSNDSEGCFRGSRRRLAIGSAEAGQGGWAWPRVPPQQPSRAPGNTRPPLPPVPKLCRIKASKALKKKIRRFQPAALKVMTMV
